# B1: pRK CHOP (protein, UniProt P35638 1-169, looked up)
# DNA damage-inducible …: MAAESLPFSFGTLSSWELEAWYEDLQEVLSSDENGGTYVSPPGNEEEESKIFTTLDPASLAWLTEEEPEPAEVTSTSQSPHSPDSSQSSLAQEEEEEDQGRTRKRKQSGHSPARAGKQRMKEKEQENERKVAQLAEENERLKQEIERLTREVEATRRALIDRMVNLHQA
# modifications: expression plasmid
# B2: MPZ-GFP: myelin protein zero with a C-terminal monomeric EGFP, expressed from plasmid (protein)
# chain: IVVYTDREVHGAVGSRVTLHCSFWSSEWVSDDISFTWRYQPEGGRDAISIFHYAKGQPYIDEVGTFKERIQWVGDPRWKDGSIVIHNLDYSDNGTFTCDVKNPPDIVGKTSQVTLYVFEKVPTRYGVVLGAVIGGVLGVVLLLLLLFYVVRYCWLRRQAALQRRLSAMEKGKLHKPGKDASKRGRQTPVLYAMLDHSRSTKAVSEKKAKGLGESRKDKK
# modifications: left off: monomeric EGFP, C-terminal, kept
# notes: myelin protein zero with a C-terminal monomeric EGFP, expressed from plasmid
# Tests used:
# Assay type in all cases: cell-based, Homo sapiens
# [1] = test system: GADD34 mRNA in HCT116 cells; assay: qPCR of GADD34 transcript; settings: norm to GAPDH
# DR5 = assay: GFP immunoprecipitation: DR5 (FADD, caspase 8) recovered with GFP-tagged protein, Western blot; settings: for fraction of DR5 IP'ed: GFP IP
# Description: 15 cm dishes were seeded with 4 million HCT116 cells and allowed to recover for 18 hr prior to transfection. Samples were then transfected for 24 hr with the GFP-tagged ER trafficked protein, cytosolic GFP, or empty vector. To harvest apoptotic and living cells for each sample, all media and washes were collected. Cells were scraped in 2 ml of cold PBS and combined with the media and washes. Samples were centrifuged to pellet cells, washed with 1 ml cold PBS, and flash frozen in liquid N2 prior to lysis.
# The cell pellets were resuspended in 750 μl of 30 mM HEPES pH 7.2, 150 mM NaCl, 1% Triton X-100 with 1x Roche protease inhibitor cocktail (if used subsequently for caspase glo 8 assay) or with 5x Roche protease inhibitor cocktail (if used for immunoblotting). The cells were lysed by mechanical shearing through a 25G needle for 13–15 plunges followed by incubation on ice for 30 min. The lysate was centrifuged at 2000xg for 5 min to remove debris and then incubated with 30 μl of GFP-Trap magnetic agarose beads (Chromotek gtma-20) for 4 hr at 4°C. The beads were then washed with 750 μl of lysis buffer for 10 min at 4°C for three rounds.
# For Western blots, samples were eluted by adding 35 μl of non-reducing SDS gel loading buffer (50 mM Tris-HCl (pH 6.8), 2% SDS, 0.1% bromophenol blue, 10% glycerol) and incubated for 10 min at 70°C. The beads were then magnetically removed from the eluted sample before adding DTT to a final concentration of 25 mM. The entire sample was loaded onto the gel and immunoblotted for DR5, caspase 8, and GFP, in that order.
# HCT116 cells = assay: Annexin V (and SytoxBlue) flow cytometry for apoptosis; settings: for Mean ± SEM (Prism T-tests, Annexin V for MPZ-GFP): N=3, values agree with avg Annexin V+; for avg Annexin V+ / avg Annexin V-: mean of 3 replicates; for AnnexinV+ (Statistic, single cells) / AnnexinV- (Statistic, single cells) / GFP+ (Statistic, single cells) / GFP- (Statistic, single cells) / Q1: APC-A- , DAPI-A+ (Statistic, single cells) / Q2: APC-A+ , DAPI-A+ (Statistic, single cells) / Q3: APC-A+ , DAPI-A- (Statistic, single cells) / Q4: APC-A- , DAPI-A- (Statistic, single cells) / SytoxBlue+ (Statistic, single cells) / SytoxBlue- (Statistic, single cells) / dead cells (Statistic) / FITC-A+ (Statistic, dead cells) / FITC-A- (Statistic, dead cells): 2018-01-17 MPZ; for AnnexinV+ (Statistic, single cells): gate all cells/Single Cells/AnnexinV+; for AnnexinV- (Statistic, single cells): gate all cells/Single Cells/AnnexinV-; for GFP+ (Statistic, single cells): gate all cells/Single Cells/GFP+; for GFP- (Statistic, single cells): gate all cells/Single Cells/GFP-; for Q1: APC-A- , DAPI-A+ (Statistic, single cells): gate all cells/Single Cells/Q1; for Q2: APC-A+ , DAPI-A+ (Statistic, single cells): gate all cells/Single Cells/Q2; for Q3: APC-A+ , DAPI-A- (Statistic, single cells): gate all cells/Single Cells/Q3; for Q4: APC-A- , DAPI-A- (Statistic, single cells): gate all cells/Single Cells/Q4; for SytoxBlue+ (Statistic, single cells): gate all cells/Single Cells/SytoxBlue+; for SytoxBlue- (Statistic, single cells): gate all cells/Single Cells/SytoxBlue-; for dead cells (Statistic): gate dead cells of all events; for FITC-A+ (Statistic, dead cells): gate dead cells/Single Cells/FITC-A+; for FITC-A- (Statistic, dead cells): gate dead cells/Single Cells/FITC-A-
# Description: Cells seeded in a 6-well plate were transfected with the specified plasmid for 24 hr and harvested via trypsinization in complete media to allow a 30 min recovery at 37°C. The samples were then centrifuged at 500xg for 5 min and resuspended In 150 μl of a 1:20 dilution of Annexin V-AlexaFluor 647 conjugate (Thermo Scientific #A23204). Samples were transferred to a 96-well U-bottom plate and incubated in the dark for 15 min at RT. The distribution of apoptotic cells was determined by flow cytometry on a BD LSR II.
# [2] = siRNA DR5 (siDR5), 2017-01-17 Replicate
# [3] = siRNA DR5 (siDR5), 2018-06-21 Rep 1
# [4] = siRNA DR5 (siDR5), 2018-06-21 Rep 2
# [5] = siRNA scrambled, 2017-01-17 Replicate
# [6] = siRNA scrambled, Tg sample with empty construct
# [7] = siRNA scrambled, 2018-06-21 Rep 1
# [8] = siRNA scrambled, 2018-06-21 Rep 2
molecule,measurement,setting,value
B1,"avg. fold induction, GADD34","[1]; HCT116, 62 ng",1.117
same,"avg. fold induction, GADD34","[1]; HCT116, 125 ng",1.442
same,"avg. fold induction, GADD34","[1]; HCT116, 250 ng",1.579
same,"avg. fold induction, GADD34","[1]; HCT116, 500 ng",2.1696
B2,fraction of DR5 IP'ed,DR5; run 2018-02-27,0.1051
same,fraction of DR5 IP'ed,"DR5; sheet 2019-12-12, replicate 2",0.0582
same,fraction of DR5 IP'ed,"DR5; sheet 2019-12-12, replicate 3",0.1364
same,DR5 complex proteins in GFP immunoprecipitates,"DR5; HCT116, 24 hr post-transfection","detected DR5, FADD, and caspase 8"
same,fraction IP'ed,DR5; Rep 1 (first series),0.1051
same,fraction IP'ed,DR5; Rep 2 (first series),0.0582
same,fraction IP'ed,DR5; Rep 3 (first series),0.1364
same,% IP'ed,DR5; average of all replicates,9.991%
same,"fraction IP'ed, average",DR5; average of all replicates,0.09991
same,beads (*diluton factor),DR5; Rep 1 (first series),1453332
same,beads (*diluton factor),DR5; Rep 2 (first series),11158310
same,beads (*diluton factor),DR5; Rep 3 (first series),12501020
same,input (*dilution factor),DR5; Rep 1 (first series),13824070
same,input (*dilution factor),DR5; Rep 2 (first series),191711370
same,input (*dilution factor),DR5; Rep 3 (first series),91647520
same,Mean ± SEM (fraction IP'ed),"DR5; unpaired t test sheet, GFP n=5, MPZ n=3, INS n=2, RHO n=2","0.09991 ± 0.02272, n=3"
same,95% confidence interval (difference between means),"DR5; vs. GFP, fraction IP'ed",0.04255 to 0.1369
same,Difference between means,"DR5; vs. GFP, fraction IP'ed, ± SEM",0.0897 ± 0.01927
same,Difference between means,HCT116 cells; MPZ-GFP siDR5 vs. MPZ-GFP,-18 ± 5.2
same,Mean ± SEM (Fig 1S2D),"HCT116 cells; MPZ-GFP, mean ± SEM, n=3","37.91 ± 5.341, n=3"
same,"Mean ± SEM (Prism T-tests, Annexin V for MPZ-GFP)","HCT116 cells; no siDR5, mean ± SEM",33 ± 4.7 N=3
same,"Mean ± SEM (Prism T-tests, Annexin V for MPZ-GFP)","HCT116 cells; siDR5, mean ± SEM",15 ± 2.3 N=3
same,Annexin V+,HCT116 cells; [2],10.4
same,Annexin V-,HCT116 cells; [2],89.6
same,Annexin V+,HCT116 cells; [3],17
same,Annexin V-,HCT116 cells; [3],83
same,Annexin V+,HCT116 cells; [4],17.8
same,Annexin V-,HCT116 cells; [4],82.2
same,avg Annexin V+,HCT116 cells; siRNA DR5 (siDR5),15.0667
same,avg Annexin V-,HCT116 cells; siRNA DR5 (siDR5),84.9333
same,"AnnexinV+ (Statistic, single cells)",HCT116 cells; siRNA DR5,10.4
same,"AnnexinV- (Statistic, single cells)",HCT116 cells; siRNA DR5,89.6
same,"GFP+ (Statistic, single cells)",HCT116 cells; siRNA DR5,40.8
same,"GFP- (Statistic, single cells)",HCT116 cells; siRNA DR5,59.2
same,"Q1: APC-A- , DAPI-A+ (Statistic, single cells)",HCT116 cells; siRNA DR5,1.26
same,"Q2: APC-A+ , DAPI-A+ (Statistic, single cells)",HCT116 cells; siRNA DR5,8.07
same,"Q3: APC-A+ , DAPI-A- (Statistic, single cells)",HCT116 cells; siRNA DR5,1.36
same,"Q4: APC-A- , DAPI-A- (Statistic, single cells)",HCT116 cells; siRNA DR5,89.3
same,"SytoxBlue+ (Statistic, single cells)",HCT116 cells; siRNA DR5,9.1
same,"SytoxBlue- (Statistic, single cells)",HCT116 cells; siRNA DR5,90.9
same,dead cells (Statistic),HCT116 cells; siRNA DR5,6.03
same,"FITC-A+ (Statistic, dead cells)",HCT116 cells; siRNA DR5,43.4
same,"FITC-A- (Statistic, dead cells)",HCT116 cells; siRNA DR5,56.6
same,"AnnexinV+ (Statistic, single cells)",HCT116 cells; siRNA TRAIL,20.8
same,"AnnexinV- (Statistic, single cells)",HCT116 cells; siRNA TRAIL,79.2
same,"GFP+ (Statistic, single cells)",HCT116 cells; siRNA TRAIL,47.9
same,"GFP- (Statistic, single cells)",HCT116 cells; siRNA TRAIL,52.1
same,"Q1: APC-A- , DAPI-A+ (Statistic, single cells)",HCT116 cells; siRNA TRAIL,2.56
same,"Q2: APC-A+ , DAPI-A+ (Statistic, single cells)",HCT116 cells; siRNA TRAIL,16.8
same,"Q3: APC-A+ , DAPI-A- (Statistic, single cells)",HCT116 cells; siRNA TRAIL,2.29
same,"Q4: APC-A- , DAPI-A- (Statistic, single cells)",HCT116 cells; siRNA TRAIL,78.3
same,"SytoxBlue+ (Statistic, single cells)",HCT116 cells; siRNA TRAIL,18.9
same,"SytoxBlue- (Statistic, single cells)",HCT116 cells; siRNA TRAIL,81.1
same,dead cells (Statistic),HCT116 cells; siRNA TRAIL,10.4
same,"FITC-A+ (Statistic, dead cells)",HCT116 cells; siRNA TRAIL,43.4
same,"FITC-A- (Statistic, dead cells)",HCT116 cells; siRNA TRAIL,56.6
same,Annexin V+,HCT116 cells; [5],41.8
same,Annexin V-,HCT116 cells; [5],58.2
same,"AnnexinV+ (Statistic, single cells)",HCT116 cells; [6],41.8
same,"AnnexinV- (Statistic, single cells)",HCT116 cells; [6],58.2
same,"GFP+ (Statistic, single cells)",HCT116 cells; [6],60.1
same,"GFP- (Statistic, single cells)",HCT116 cells; [6],39.9
same,"Q1: APC-A- , DAPI-A+ (Statistic, single cells)",HCT116 cells; [6],10.7
same,"Q2: APC-A+ , DAPI-A+ (Statistic, single cells)",HCT116 cells; [6],31.7
same,"Q3: APC-A+ , DAPI-A- (Statistic, single cells)",HCT116 cells; [6],8.04
same,"Q4: APC-A- , DAPI-A- (Statistic, single cells)",HCT116 cells; [6],49.5
same,"SytoxBlue+ (Statistic, single cells)",HCT116 cells; [6],40
same,"SytoxBlue- (Statistic, single cells)",HCT116 cells; [6],60
same,dead cells (Statistic),HCT116 cells; [6],22
same,"FITC-A+ (Statistic, dead cells)",HCT116 cells; [6],37.6
same,"FITC-A- (Statistic, dead cells)",HCT116 cells; [6],62.4
same,Annexin V+,HCT116 cells; [7],25.8
same,Annexin V-,HCT116 cells; [7],74.2
same,Annexin V+,HCT116 cells; [8],32
same,Annexin V-,HCT116 cells; [8],68
same,avg Annexin V+,HCT116 cells; siRNA scrambled,33.2
same,avg Annexin V-,HCT116 cells; siRNA scrambled,66.8

# — article PMC7041945, “Misfolded proteins bind and activate death receptor 5 to trigger apoptosis during unresolved endoplasmic reticulum stress” (eLife, 2020)
